In publication PMC5030711, “Investigation of SP94 Peptide as a Specific Probe for Hepatocellular Carcinoma Imaging and Therapy” (Scientific Reports, 2016):
“And” between values parts separate entries of the source, which are not always exact repeats. Identical values can stand only once. “Also recorded” adds a separate entry of the source. Residues, ends and D or L forms follow the SMILES beside them. *: point of attachment. HYNIC = NNc1ccc(C(=O)*)cn1

Columns and labels:
Huh-7 cells = format: binding, human; settings: 2 h
Method: The binding affinity of HYNIC-SP94 was assessed via a competitive displacement assay with ^99mTc tricine-EDDA/HYNIC-SP94[35]. Briefly, Huh-7 cells (1 × 10^6) and ^99mTc tricine-EDDA/HYNIC-SP94 (370 kBq) were added to each test tube in the presence of increasing concentrations of the SP94 peptide (from 0.001 nM to 10000 nM) and incubated for 2 h at 37 °C. To remove unbound ^99mTc tricine-EDDA/HYNIC-SP94, the cells were washed three times with cold PBS (1×, pH 7.2) and then centrifuged (600 rpm, 5 min). Radioactivity was determined using a γ-counter. The IC50 value was calculated by fitting experimental data with nonlinear regression using GraphPad Prism (GraphPad Software, San Diego, CA, USA).

[1] = In vitro stability of ^99mTc-labeled complexes (radio-TLC); format: in vitro ADME; settings: PBS, normal saline and FBS, 37 °C, 1-12 h
Method: The in vitro stability of the radiolabeled peptide was tested by incubating it in PBS, saline and FBS for 1, 2, 4, 6 and 12 h at 37 °C. After incubation, ^99mTc-labeled complexes were assessed by radio-TLC. Results were plotted as the RCP (%) at different time points.

[2] = In vivo stability (RP-HPLC of plasma); set-up: species or system balb/c mice; settings: within 60 min after tail vein injection (~30 MBq/mouse)
Method: The in vivo stability of ^99mTc tricine-EDDA/HYNIC-SP94 was evaluated in balb/c mice. ^99mTc tricine-EDDA/HYNIC-SP94 (~30 MBq/mouse) in 0.1 mL of saline was injected via the tail vein. Blood was then taken from the heart 10, 30, 60, 120 and 240 min after injection under anesthesia. Blood was collected in a heparin tube and immediately centrifuged (5000 rpm, 5 min) to obtain plasma. A total of 400 μL methanol/trichloromethane (V/V: 4/1) was added to 400 μL of plasma, fully mixed and centrifuged (5000 rpm, 5 min). RP-HPLC analysis was performed with 20 μL supernatant loading filtered by a 0.22 μm filter. The RP-HPLC was equipped with a Zorbax Eclipse XDB-C18 column (4.6 × 150 mm) and the following gradients were used at a flow rate of 1 mL/min: 98% solvent A (0.1% trifluoroacetic in 100% water) and 2% solvent B (0.09% trifluoroacetic in 80% ACN and 20% water): 0~5 min; 2% solvent A and 98% solvent B: 5~10 min; 98% solvent A and 2% solvent B: 10~15 min.

Huh-7 tumor-bearing mice = assay: Biodistribution study; format: in vivo, balb/c nude mice; settings: mean ± SD; for Tumor uptake: Huh-7 tumor; for Tumor/muscle: ratio
Excerpt: Four- to six-week-old male athymic nude mice were used for preparation of the xenograft tumor models. Huh-7 and Hela cells were subcutaneously injected at a concentration of 5 × 10^6 cells/mouse in the right front flank of the mice. The mice were ready for biodistribution and microSPECT/CT imaging study when the tumors reached an average diameter of 0.8~1.0 cm (3~4 weeks after inoculation). Animal care and experimental procedures were accordant with the Helsinki Declaration and were approved by the institutional animal care committee.
Fifteen Huh-7 tumor-bearing mice were randomly divided into three groups. ^99mTc tricine-EDDA/HYNIC-SP94 (~0.74 MBq/mouse) in 0.1 mL of saline was injected via tail vein. At 0.5 and 1.5 h p.i., the mice were anesthetized via 2% isoflurane and sacrificed by cervical dislocation. Immediately after sacrifice, the blood, tumors and organs of interest (heart, lungs, liver, spleen, stomach, small intestine, large intestine, kidneys, muscle and thyroid) were harvested, washed with saline and weighed. Radioactivity was determined using a γ-counter. To determine the specific uptake of ^99mTc tricine-EDDA/HYNIC-SP94, 5 mice received an intravenous injection of 200 μg of unlabeled HYNIC-SP94 as a blocking agent 30 min prior to injection of ^99mTc tricine-EDDA/HYNIC-SP94 (~0.74 MBq/mouse). The mice were sacrificed 30 min p.i. and the experiments performed as described above. Absorption of organs and tissues was calculated as a percentage of the injected dose per gram of tissue mass (%ID/g).

[3] = In vitro stability of ^188Re-HYNIC-SP94 (radio-TLC); format: in vitro ADME; settings: FBS, room temperature, 48 h, mean ± SD
Method: The in vitro stability of ^188Re-HYNIC-SP94 was evaluated by incubating ^188Re-HYNIC-SP94 in normal saline and FBS at room temperature. RCP was analyzed by radio-TLC at 1, 4, 8, 18, 26 and 48 h after incubation to determine the stability.

[4] = 0.5 h p.i., blocking: 200 μg unlabeled HYNIC-SP94 i.v. 30 min prior

CC[C@H](C)[C@H](NC(=O)[C@H](CO)NC(=O)[C@H](Cc1ccccc1)NC(=O)[C@H](CO)NC(=O)c1ccc(NN)nc1)C(=O)N[C@H](C(=O)N[C@@H](Cc1c[nH]cn1)C(=O)N[C@H](C(=O)N1CCC[C@H]1C(=O)N[C@H](C(=O)N[C@@H](CC(C)C)C(=O)N1CCC[C@H]1C(=O)N[C@@H](CC(C)C)C(=O)O)[C@@H](C)CC)[C@@H](C)O)[C@@H](C)CC [HYNIC-SP94, 6-hydrazinonicotinic acid-SP94] ({HYNIC}-SFSIIHTPILPL-OH)
IC50 (Huh-7 cells): 4.49 ± 0.2 nM

CC[C@H](C)[C@H](NC(=O)[C@H](CO)NC(=O)[C@H](Cc1ccccc1)NC(=O)[C@H](CO)NC(=O)c1ccc(NN)nc1)C(=O)N[C@H](C(=O)N[C@@H](Cc1c[nH]cn1)C(=O)N[C@H](C(=O)N1CCC[C@H]1C(=O)N[C@H](C(=O)N[C@@H](CC(C)C)C(=O)N1CCC[C@H]1C(=O)N[C@@H](CC(C)C)C(=O)O)[C@@H](C)CC)[C@@H](C)O)[C@@H](C)CC [^99mTc tricine-EDDA/HYNIC-SP94, metal not drawn] ({HYNIC}-SFSIIHTPILPL-OH)
in vitro stability (RCP) [1]: highly stable; also recorded: slightly better | radiochemical purity (RCP) maintained in vivo [2]: about 66% | Blood uptake (Huh-7 tumor-bearing mice; 0.5 h p.i., blocking): 0.99 ± 0.12 %ID/g | Blood uptake (Huh-7 tumor-bearing mice; 0.5 h p.i., non-blocking): 1.17 ± 0.37 %ID/g | Blood uptake (Huh-7 tumor-bearing mice; 1.5 h p.i., non-blocking): 0.49 ± 0.08 %ID/g | Heart uptake (Huh-7 tumor-bearing mice; [4]): 0.58 ± 0.03 %ID/g | Heart uptake (Huh-7 tumor-bearing mice; 0.5 h p.i., non-blocking, i.v. ~0.74 MBq/mouse): 0.54 ± 0.13 %ID/g | Heart uptake (Huh-7 tumor-bearing mice; 1.5 h p.i., non-blocking): 0.34 ± 0.03 %ID/g | Tumor uptake (Huh-7 tumor-bearing mice; [4]): 0.34 ± 0.09 %ID/g | Tumor uptake (Huh-7 tumor-bearing mice; 0.5 h p.i., non-blocking): 1.02 ± 0.26 %ID/g | Tumor uptake (Huh-7 tumor-bearing mice; 1.5 h p.i., non-blocking): 0.74 ± 0.07 %ID/g | Kidney uptake (Huh-7 tumor-bearing mice; 0.5 h p.i., blocking): 7.58±2.25 %ID/g | Kidney uptake (Huh-7 tumor-bearing mice; 0.5 h p.i., non-blocking): 7.40 ± 2.66 %ID/g | Kidney uptake (Huh-7 tumor-bearing mice; 1.5 h p.i., non-blocking): 6.14 ± 0.10 %ID/g | Large intestine uptake (Huh-7 tumor-bearing mice; 0.5 h p.i., blocking): 0.54 ± 0.08 %ID/g | Large intestine uptake (Huh-7 tumor-bearing mice; 0.5 h p.i., non-blocking): 0.70 ± 0.09 %ID/g | Large intestine uptake (Huh-7 tumor-bearing mice; 1.5 h p.i., non-blocking): 0.48 ± 0.02 %ID/g | Liver uptake (Huh-7 tumor-bearing mice; 0.5 h p.i., blocking): 2.07 ± 0.20 %ID/g | Liver uptake (Huh-7 tumor-bearing mice; 0.5 h p.i., non-blocking): 2.39 ± 1.55 %ID/g | Liver uptake (Huh-7 tumor-bearing mice; 1.5 h p.i., non-blocking): 1.98 ± 0.15 %ID/g | Lung uptake (Huh-7 tumor-bearing mice; 0.5 h p.i., blocking): 2.06 ± 0.18 %ID/g | Lung uptake (Huh-7 tumor-bearing mice; 0.5 h p.i., non-blocking): 2.10 ± 0.43 %ID/g | Lung uptake (Huh-7 tumor-bearing mice; 1.5 h p.i., non-blocking): 1.45 ± 0.04 %ID/g | Muscle uptake (Huh-7 tumor-bearing mice; 0.5 h p.i., blocking): 0.23 ± 0.05 %ID/g | Muscle uptake (Huh-7 tumor-bearing mice; 0.5 h p.i., non-blocking): 0.30 ± 0.05 %ID/g | Muscle uptake (Huh-7 tumor-bearing mice; 1.5 h p.i., non-blocking): 0.16 ± 0.02 %ID/g | Small intestine uptake (Huh-7 tumor-bearing mice; 0.5 h p.i., blocking): 0.78 ± 0.11 %ID/g | Small intestine uptake (Huh-7 tumor-bearing mice; 0.5 h p.i., non-blocking): 0.97 ± 0.22 %ID/g | Small intestine uptake (Huh-7 tumor-bearing mice; 1.5 h p.i., non-blocking): 0.73 ± 0.07 %ID/g | Spleen uptake (Huh-7 tumor-bearing mice; 0.5 h p.i., blocking): 1.05 ± 0.27 %ID/g | Spleen uptake (Huh-7 tumor-bearing mice; 0.5 h p.i., non-blocking): 0.84 ± 0.30 %ID/g | Spleen uptake (Huh-7 tumor-bearing mice; 1.5 h p.i., non-blocking): 0.67 ± 0.04 %ID/g | Stomach uptake (Huh-7 tumor-bearing mice; 0.5 h p.i., blocking): 0.84 ± 0.06 %ID/g | Stomach uptake (Huh-7 tumor-bearing mice; 0.5 h p.i., non-blocking): 0.85 ± 0.18 %ID/g | Stomach uptake (Huh-7 tumor-bearing mice; 1.5 h p.i., non-blocking): 0.68 ± 0.09 %ID/g | Thyroid uptake (Huh-7 tumor-bearing mice; 0.5 h p.i., blocking): 0.52 ± 0.04 %ID/g | Thyroid uptake (Huh-7 tumor-bearing mice; 0.5 h p.i., non-blocking): 0.47 ± 0.09 %ID/g | Thyroid uptake (Huh-7 tumor-bearing mice; 1.5 h p.i., non-blocking): 0.27 ± 0.03 %ID/g | Tumor/muscle (Huh-7 tumor-bearing mice; 0.5 h p.i., blocking): 1.56 ± 0.06 | Tumor/muscle (Huh-7 tumor-bearing mice; 0.5 h p.i., non-blocking): 3.96 ± 0.06 | Tumor/muscle (Huh-7 tumor-bearing mice; 1.5 h p.i., non-blocking): 4.55 ± 0.10

CC[C@H](C)[C@H](NC(=O)[C@H](CO)NC(=O)[C@H](Cc1ccccc1)NC(=O)[C@H](CO)NC(=O)c1ccc(NN)nc1)C(=O)N[C@H](C(=O)N[C@@H](Cc1c[nH]cn1)C(=O)N[C@H](C(=O)N1CCC[C@H]1C(=O)N[C@H](C(=O)N[C@@H](CC(C)C)C(=O)N1CCC[C@H]1C(=O)N[C@@H](CC(C)C)C(=O)O)[C@@H](C)CC)[C@@H](C)O)[C@@H](C)CC [^188Re-HYNIC-SP94, metal not drawn] ({HYNIC}-SFSIIHTPILPL-OH)
RCP after incubation [3]: 91.67 ± 2.36% and > 90%
